From US5997865

Target: c-kit (mouse) (UniProt P05532)

expansion in cell number after 7 days of coculture on 7-4 stroma (AA4+ Kit+ Flk-2+ cells) (not stated (cell number, Table 2)): 210
Substance: kit ligand
